Laboratory results: publication PMC11543927, “Subtleties in Clathrin heavy chain binding boxes provide selectivity among adaptor proteins of budding yeast” (Nature Communications, 2024)

T1: ScChc-NTD (Saccharomyces cerevisiae, UniProt P22137)
T1 construct: N-terminal domain (ScChc-NTD, 1–369) was cloned in a pETM-30 vector; His-GST (TEV site); made in house; host or cells: E. coli BL21 (DE3)
T1 sequence (P22137 1-369): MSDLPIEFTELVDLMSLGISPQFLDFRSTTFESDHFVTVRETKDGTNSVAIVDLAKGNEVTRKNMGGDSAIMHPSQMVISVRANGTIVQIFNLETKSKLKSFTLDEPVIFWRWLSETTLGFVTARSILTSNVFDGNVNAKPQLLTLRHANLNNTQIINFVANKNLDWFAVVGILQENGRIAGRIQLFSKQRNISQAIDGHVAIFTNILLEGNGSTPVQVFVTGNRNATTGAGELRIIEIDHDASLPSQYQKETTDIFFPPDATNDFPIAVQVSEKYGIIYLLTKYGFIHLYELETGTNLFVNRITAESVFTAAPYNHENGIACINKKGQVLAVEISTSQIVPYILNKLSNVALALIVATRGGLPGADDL

B1: Apl2.1 CBM peptide (SQDLLDLF) (peptide)
peptide: SQDLLDLF
notes: also called LLDLF peptide; source: synthetic peptide, bought: NovoProLabs
B2: Yap1802 CBM peptide (NPNLIDI) (peptide)
peptide: NPNLIDI
notes: source: synthetic peptide, bought: NovoProLabs
B3: Yap1801 CBM peptide (NLNLIDM) (peptide)
peptide: NLNLIDM
notes: as for B2
B4: Ent5.1 CBM peptide (IPDLIDLDD) (peptide)
peptide: IPDLIDLDD
notes: also called Ent5.1 LIDL motif; LIDL peptide; source: synthetic peptide, bought: NovoProLabs
B5: Ent2 endogenously tagged with mNeonGreen (Ent2-mNeonGreen) (natural protein, UniProt Q05785 1-613, looked up)
chain: MSKQFVRSAKNMMKGYSSTQVLVRDATANDSRTPSIDTLDDLAQRSYDSVDFFEIMDMLDKRLNDKGKYWRHVAKSLTVLDYLVRFGSENCVLWCRENFYVIKTLREFRHENESGFDEGQIIRVKAKELVSLLNDEERLREERSMNTRNRRANRAARPRPRRQRTRSNPHDSSPSYQDDLEKALEESRITAQEDEQRRRELAQYDDEDPDFQAALQLSKEEEELKQLQELQRLQKQQQSLSQFQAPLQQQQPQQQPAYYDIFGNPISQDEYLQYQYQQDQEQAMAQQRWLDQQQEQQQLAEQQYFQQQQQAAAAASALQQQQTAANMQQQQQQPADFQQPLPTGSNNPFSMDNLERQKQEQQHAQLQRQQEEARQQQEQLKLQQLQRQQQEEAQLHQKRQEEAQLQQQQAQLLQQQAQFQQQQPLKQTRTGNQSISDKYSDLNTLLATGTGIDTFGNTGEARIPAQHTKTGTFINSQGTGYKQVTNEPKNNPFLSNQYTGLPSTNIVPTQTGYGFGNQPQSPPTNSPQQNPTGISYSQPQQQQQPQQQPQYMQNFQQQQPQYAQNFQQQPQYTQNYQQQPQYIQPHQQQQQQQQQQQQQQGYTPDQGVSLIDL
notes: epsin Ent2, Saccharomyces cerevisiae, endogenous locus tagged with mNeonGreen; also called Ent2-WT-mNeonGreen; Ent2p; source: endogenously tagged, S. cerevisiae MK100, in living cells
B6: Saccharomyces cerevisiae clathrin heavy chain N-terminal domain (ScChc-NTD, 1-369) (domain or fragment, UniProt P22137 1-369, looked up)
chain: T1 sequence (P22137 1-369)
notes: Clathrin heavy chain N-terminal domain, Saccharomyces cerevisiae, residues 1-369; pETM-30 vector with a His-GST tag and a TEV cleavage site; also called WT NTD; source: E. coli BL21 (DE3), purified (Ni-NTA, TEV cleavage, reverse Ni-NTA, SEC)

Legend:
ScChc-NTD = biological target: T1, ScChc-NTD; assay: Native MS titration of Ent5.1, 1.75 µM protein in 200 mM NH4AcO pH 9.0; format: binding; details: global non-linear square fitting of the five measured fractions, four independent sites with the same affinity; read-out: microscopic KD
Protocol: ScChc-NTD stocks were doubly buffer-exchanged into a 200 mM NH4AcO, pH 9.0 buffered solution by two subsequent runs on P6 biospins (BioRad); the protein concentration was determined photometrically (ε280 nm = 26,930 M^−1cm^−1) and the protein was diluted into 20 µl aliquots. Final samples contained 1.75 µM protein. Samples for competition experiments were prepared similarly for constant (20 µM) Ent1 and varying (0, 5, 10, 15, 20, 25, 30 and 50 µM) Ent2 concentrations and vice versa. Mass measurements. Samples were placed into gold-coated capillaries and after ionization by nano-electrospraying mass-measured in a QE-UHMR orbitrap mass spectrometer (Thermo Fisher Scientific) as follows: 1. establishment of a (“wet”) spray using a capillary voltage of 1.10-1.15 kV but with the syringe locked as to guarantee a relatively high backing pressure. 2. […] By doing so, success in the sense of as least as possible unspecific clusters could be easily monitored by spectrum appearance and distinct downward steps of the total ion current (TIC). […]
The processed output of the native MS interaction data consists of the relative fractions of CHC bound to different numbers of peptides. In this case, we detected CHC bound to up to four peptides. […]
To average the measured fractions related to similar free ligand concentrations, we used log-spaced intervals with base 1.1 starting at 0.011 μM. […]

[1] = biological target: B6; assay: nanoDSF thermal shift; ScChc-NTD 8 µM incubated with eleven peptide concentrations (1:1 dilutions) for 15 min, heated 20-95 °C at 1 °C/min, SEC buffer (50 mM Tris pH 9, 150 mM NaCl, 0.5 mM TCEP); apparent KD from the Tm shift model, one to one binding assumed, global average over all boxes; details: both partners purified
[2] = biological target: B6; assay: native MS; ScChc-NTD 1.75 µM in 200 mM NH4AcO pH 9.0, Ent5.1 peptide up to 100 µM; details: both partners purified
[3] = biological target: T2, Chc-mScarlet Clathrin and Arrestin box mutant (Cla+Arr) (Saccharomyces cerevisiae, UniProt P22137 1-1653, K63E | I87D | Q89A | K98E | Q195A | I197T | K251E); assay: FRET or BRET; acceptor photobleaching FRET in living yeast cells at endocytic patches stalled with Latrunculin A, donor mNeonGreen on Ent1/Ent2, acceptor mScarlet on Chc, 21 °C; trimmed mean FRET efficiency; details: partners not purified
T2 construct: Clathrin heavy chain, Saccharomyces cerevisiae, the ORF of CHC1 fused in the 3' with mScarlet, Clathrin and Arrestin box mutant; source: S. cerevisiae MK100, mutated plasmid pRS315-5'UTR CHC-mScarlet, endogenous CHC1 knocked out, in living cells; not shown: mScarlet, C-terminal, kept

[4] = biological target: T3, Chc-mScarlet Arrestin box mutant (Q195A, I197T, K251E) (Saccharomyces cerevisiae, UniProt P22137 1-1653, Q195A | I197T | K251E); assay: as above; details: partners not purified
T3 construct: Clathrin heavy chain, Saccharomyces cerevisiae, the ORF of CHC1 fused in the 3' with mScarlet, Arrestin box mutant; also called Arr mutant; source: S. cerevisiae MK100, mutated plasmid pRS315-5'UTR CHC-mScarlet, endogenous CHC1 knocked out, in living cells; not shown: mScarlet, C-terminal, kept

[5] = biological target: T4, Clathrin heavy chain fused to mScarlet (Chc-mScarlet), wild type (Saccharomyces cerevisiae, UniProt P22137 1-1653); assay: as above; details: partners not purified
T4 construct: Clathrin heavy chain, Saccharomyces cerevisiae, the ORF of CHC1 fused in the 3' with mScarlet; also called Chc1-mScarlet; ScCHC-mScarlet; not shown: mScarlet, C-terminal, kept

[6] = biological target: the molecule itself; assay: crystal structure; sitting drop; NTD incubated with excess peptide (between 23 and 40 fold) for 15 min at room temperature (21 °C) before setting up plates

CC[C@H](C)[C@H](N)C(=O)N1CCC[C@H]1C(=O)N[C@@H](CC(=O)O)C(=O)N[C@@H](CC(C)C)C(=O)N[C@H](C(=O)N[C@@H](CC(=O)O)C(=O)N[C@@H](CC(C)C)C(=O)N[C@@H](CC(=O)O)C(=O)N[C@@H](CC(=O)O)C(=O)O)[C@@H](C)CC (single isomer, unassigned) [Ent5.1]
Kd (ScChc-NTD): 39.1 µM

B1
Kd [1]: ~245 µM

B2
Kd [1]: ~311 µM

B3
Kd [1]: ~598 µM

B4
stoichiometry N [2]: 3 | Kd [1]: ~34 µM

B5
FRET efficiency [3]: 6.1% | FRET efficiency [4]: 6.7% | FRET efficiency [5]: 9.02%

B6
binding result [6]: binds
